According to US20220220218A1 (JIANGSU HENGRUI MEDICINE, published 2022):

Assays:
[1] = target: T1, human CD73 on tumor cell line MDA-MB-231 that highly expresses human CD73 (human, UniProt P21589 27-549); experiment: cell-based or functional assay
T1 sequence (looked up): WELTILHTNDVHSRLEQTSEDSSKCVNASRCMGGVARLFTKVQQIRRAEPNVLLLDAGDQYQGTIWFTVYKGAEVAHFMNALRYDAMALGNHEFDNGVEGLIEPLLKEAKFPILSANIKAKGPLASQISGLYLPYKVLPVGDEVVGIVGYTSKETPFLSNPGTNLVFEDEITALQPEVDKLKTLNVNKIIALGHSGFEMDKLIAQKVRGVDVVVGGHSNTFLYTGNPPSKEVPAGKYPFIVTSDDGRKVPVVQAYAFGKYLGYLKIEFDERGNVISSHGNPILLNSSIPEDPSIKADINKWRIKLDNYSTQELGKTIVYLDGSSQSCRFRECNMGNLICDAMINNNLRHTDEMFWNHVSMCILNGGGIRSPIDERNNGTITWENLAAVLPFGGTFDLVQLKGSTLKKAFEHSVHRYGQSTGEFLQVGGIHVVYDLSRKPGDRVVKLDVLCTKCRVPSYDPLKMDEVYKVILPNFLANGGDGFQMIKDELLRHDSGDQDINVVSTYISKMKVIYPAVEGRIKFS

[2] = target: T1, human CD73 on tumor cell line …; experiment: cell ELISA on fixed MDA-MB-231 cells
Method: The MDA-MB-231 cells were directly coated onto a 96-well microtiter plate. The signal strength after the addition of the antibody was used to determine the binding activity of the antibody to MDA-MB-231 cells. The specific experimental procedures were as follows:
MDA-MB-231 cells (ATCC, Cat No HTB-26) were seeded in the 96-well plate (Corning, Cat No. CLS3599-100EA) at a density of 6×10⁵/ml, 100 μl/well, and cultured overnight. The supernatant was discarded, the plate was washed with PBS for three times, 100 μl/well of cell immune fixed solution (Beyotime, Cat No. P0098) was added and fixed for half an hour at room temperature, and the plate washed with PBS for four times. The liquid was discarded, 250 μl/well blocking solution (5% skim milk diluted in PBS) was added, and incubated in an incubator at 37° C. for 3 hours. After the blocking was finished, the blocking solution was discarded, the plate was washed for 5 times with PBST buffer, 50 μl/well of various concentrations of each of the test antibodies were added, and incubated in an incubator at 37° C. for 1 hour. After the incubation was finished, the plate was washed for 5 times with PBST, 50 μl/well of HRP-labeled goat anti-mouse secondary antibody (Jackson Immuno Research, Cat No. 115-035-003) or goat anti-human secondary antibody (Jackson Immuno Research, Cat No. 109-035-003) diluted with sample diluent was added, and incubated at 37° C. for 1 hour. The plate was washed for 5 times with PBST, 50 μl/well of TMB chromogenic substrate (KPL, Cat No. 52-00-03) was added, incubated at room temperature for 5-15 min, and 50 μl/well of 1M H₂SO₄ was added to stop the reaction. The absorbance value was read by a microplate reader (Molecular Devices, VERSA max) at a wavelength of 450 nm, and the data was analyzed with GraphPad Prism 5. The binding of anti-CD73 antibody to MDA-MB-231 cells over-expressing CD73 was calculated as EC50 value.

Row | Binder | IC50 (nM) in the assay showing the inhibition of enzyme activity in MDA-MB-231 cell [1] [nM] | EC50 [2] [nM]
1 | CPX006 (antibody CPX-006 disclosed in patent application WO2018013611) (antibody, V domains shown) VH: QVQLVQSGAEVEKPGASVKVSCKASGYTFTSYWITWVRQAPGQGLEWMGDIYPGSGNTNYNEKFKTRVTITADKSTSTAYMELSSLRSEDTAVYYCAKEGGLTTEDYALDYWGQGTLVTVSS VL: EIVLTQSPATLSLSPGERATLSCRASKNVSTSGYSYMHWYQQKPGQAPRLLIYLASNLESGIPPRFSGSGYGTDFTLTINNIESEDAAYYFCQHSRELPFTFGQGTKVEIKR | 10.2 | 0.433
2 | Hab110.21 (antibody, human IgG1, kappa, V domains shown, also called humanized antibody of mab110) VH: EVQLVQSGAEVKKPGASVKVSCKASGYTFTSYTMHWVRQAPGQRLEWMGYINPNSFYIEYNQKFKDRVTITRDTSASTAYMELSSLRSEDTAVYYCARGDYDLFYDMDNWGQGTTVTVSS VL: DIQMTQSPSSLSASVGDRVTITCRASQDIGNSLNWLQQKPGKAIKRLIYATFRLDSGVPSRFSGSRSGTEYTLTISSLQPEDFATYYCQQYASFPWTFGGGTKVEIKR | 0.329 | 0.056
3 | Hab127.31d (antibody, human IgG1, kappa, V domains shown, also called humanized antibody of mab127) VH: EVQLVQSGAEVKKPGASVKVSCKASGYTFTAYFMNWVRQAPGQGLEWMGRIYHNKGDTFYSQKFKGRVTMTVDKSTSTVYMELSSLRSEDTAVYYCATSYVGDWGQGTTVTVSS VL: DIQMTQSPSSLSASVGDRVTITCRASQDIGDSLNWLQQKPGGALKRLIYATSSLDSGVPSRFSGSGSGTEYTLTISSLQPEDFATYYCLQYASFPWTFGGGTKVEIKR | 0.505 | 0.072
4 | Hab108.64 (antibody, human IgG1, kappa, V domains shown, also called humanized antibody of mab108) VH: EVTLKQSGPGLVKPTETLTLTCTVSGFSLSSYGIQWVRQPPGKGLEWLGVIWSGGSADYNAAFISRLTISKDTSKSQVVLTMTNMDPVDTATYYCAGQYGSVWGQGTLVTVSS VL: DIQMTQSPSSLSASVGDRVTITCRASQDIGDRLNWLQQKPGGAIKRLIYATSSLDSGVPKRFSGSGSGTEYTLTISSLQPEDFATYYCLQYAGSWTFGGGTKVEIKR | 0.53 | 0.062
